Laboratory results from patent US9371393B2, “Class I anti-CEA antibodies and uses thereof” (Immunomedics, Inc., priority 2009, dated 2016).

T1: NCA-95 (HeLa-CGM6/1) (Homo sapiens, UniProt P31997)
T1 construct: expressed in transfected cells; host or cells: HeLa (HeLa-CGM6/1)
T1 sequence (P31997 35-320): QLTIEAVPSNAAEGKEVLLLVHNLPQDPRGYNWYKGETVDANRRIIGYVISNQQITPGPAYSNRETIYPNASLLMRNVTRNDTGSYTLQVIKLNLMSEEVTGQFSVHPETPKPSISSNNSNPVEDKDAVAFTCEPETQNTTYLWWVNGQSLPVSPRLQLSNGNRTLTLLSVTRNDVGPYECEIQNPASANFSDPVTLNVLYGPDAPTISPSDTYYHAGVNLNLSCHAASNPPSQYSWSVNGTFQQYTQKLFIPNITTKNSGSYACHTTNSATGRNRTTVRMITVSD


Tests used:
NCA, MA, CEA = assay: Specificity for NCA, MA and CEA; type: binding
Text: In 1983, Primus et al. described the first panel of MAbs (NP-1, NP-2, NP-3, and NP-4) that defined NCA-cross-reactive, MA-cross-reactive, and CEA-specific epitopes on the CEA molecule (Primus et al., Cancer Res 1983, 43:686-92). […] The “ion-sensitive” determinant on CEA first was delineated by Hansen et al. (Clin Res 1971, 19:143) using unadsorbed anti-CEA polyclonal serum, and subsequently by Haskell et al. (Cancer Res 1983, 43:3857-64) with MAb. NP-2 and NP-3 react with MA and CEA but not with NCA, whereas NP-4 reacts only with CEA (Primus et al., 1983). […] The present Example describes the production and characterization of a second generation of anti-CEA antibodies, including the MN-15 Class I anti-CEA MAb.
The reagents, formulation, standards, and assay protocol of the sandwich EIA used in these studies have been described elsewhere (Hansen et al., Clin Chem 1989, 35:146-51). All assays were performed with microwells coated with NP-1, except in one experiment, in which microwells were coated with MN-15. […] After the second incubation, the amount of probe bound to CEA was determined by washing out the unbound probe, adding substrate (o-phenylenediamine/hydrogen peroxide), adding acid to stop the reaction, and quantitating the color product by reading the adsorbance at 490 nm. […]

NCA-95 (HeLa-CGM6/1) = biological target: T1, NCA-95 (HeLa-CGM6/1); assay: Indirect flow cytometry, HeLa-CGM6/1; type: binding; conditions: antibodies at 1/50 dilution of 1 mg/ml stocks
Procedure: The reactivity of antibodies was tested by flow cytometry with a Becton-Dickinson FACSCAN®. The biotinylated second antibody was directed against mouse IgG and was detected by a streptavidin/phycoerythrin conjugate. Tests were carried out with antibodies at 1/50 dilution of 1 mg/ml stocks.
The antibodies MN-3 and MN-15 were tested for recognition of HeLa cells transfected with cDNA coding for CEA (HeLa-CEA2), NCA-90 (HeLa-KNC6/S44) and NCA-95 (HeLa-CGM6/1). As a negative control, HeLa cells transfected with the plasmid pSV2-Neo (control HeLa cells, HeLa-NeoA) were used. In addition to the antibodies MN-3 and MN-15, three control antibodies were included: […]

[1] = system: MCA38cea (human CEA-transfected line) adhesion to HUVEC; assay: Endothelial cell adhesion assay, MCA38cea; type: cell-based, murine; conditions: without antibody 11.68±0.77%
Procedure: Percentage adhesion of various tumor cells with varying amounts of expressed CEACAM5 and CEACAM6 to HUVEC cells in the absence or presence of MN-15 Fab′, MN-3 Fab′, or Ag8 Fab′ control. Cells were labeled with 1 μCi/mL of ^3H-thymidine and added to HUVEC cultures and incubated for 30 minutes at 37° C. Samples were washed thrice with PBS to remove unattached cells. Attached tumor cells were solubilized with 0.1 N NaOH and radioactivity was measured in a B-scintillation counter. The cpm attached/total cpm added (attaching potential) was determined. Results of a typical study are presented. Cell lines used include BT-20 (CEACAM5+/CEACAM6+), MCF-7 (CEACAM5−/CEACAM6+), HT-29 (CEACAM5−/CEACAM6+), Moser (CEACAM5+/CEACAM6−), MCA38cea (CEACAM5+/CEACAM6−), and MCA38 (CEACAM5−/CEACAM6−).
Endothelial cell adhesion assay—Human umbilical vein endothelial cells (HUVEC; Cambrex, San Diego, Calif.) were grown in collagen-coated dishes in EGM Media in a humidified atmosphere with 5% CO2 at 37° C. At passages 2 to 5, cells were plated at a density of 4×10^4 cells per well in 96-well plates 24 hours before the assay. Interleukin-1β (IL-1β, 1 ng/mol) was added 4 hours before the assay. […] Attached cells were solubilized with 0.1 N NaOH and radioactivity was measured in a β scintillation counter. The cpm attached/total cpm added (attaching potential) was determined.

LS174T cells = assay: Collagen-based invasion assay, LS174T; type: cell-based, human; conditions: 10% FBS chemoattractant, 72-hour incubation
Procedure: Collagen-based invasion assay—The assay was done using CHEMICON® Kit (#ECM551, MILLIPORE®, Billerica, Mass.). Tumor cells at 80% confluence and were serum-starved for 18 to 24 hours before the assay was used. Cells were harvested with 5 mol of 2 mmol/L EDTA/PBS per 100-mm dish and incubated at 37° C. for 5 to 15 minutes. Cells were collected into 10 to 20 mol of quenching medium (serum-free DMEM containing 5% BSA) to inactivate trypsin/EDTA from the harvesting buffer. Cells were pelleted, resuspended in quenching medium (1×10^6 cells/mol), and appropriate antibody Fabs were added to individual cell aliquots. Cell invasion potential was determined as follows. Baseline invasion and invasion in the presence of a chemoattractant (10% FBS) were measured after a 72-hour incubation period at 37° C. in a 5% CO2 incubator. The bottom side of the collagen-coated polycarbonate membrane insert of the invasion chamber was placed in 400 μL of cell stain for 20 minutes at room temperature and washed. The dye was extracted and transferred into a 96-well microtiter plate for colorimetric measurements (A560 nm).

| binding to NCA-95 (NCA-95 (HeLa-CGM6/1)) | Molecule | reactivity with NCA, MA and CEA (NCA, MA, CEA) | endothelial cell binding [1] [%] | reduction in cell invasion (LS174T cells) [%] |
| --- | --- | --- | --- | --- |
| binds to all three antigens | MN-15: murine Class I anti-CEA MAb, IgG1 kappa, binds A1B1 domain of CEACAM5 and CEACAM6 (antibody, V domains shown) VL: DIQLTQSPAIMSASPGEKVTMTCSASSRVSYIHWYQQKSGTSPKRWIYGTSTLASGVPARFSGSGSGTSYSLTISSMEAEDAATYYCQQWSYNPPTFGAGTKLELKR VH: EVRLVESGGGLVQGPGSLRLSCAASGFALTDYYMSWVRQSPGKTLEWLGFIANKANGHTTDYSPSVKGRFTISRDNSQTILYLQMNTLRTEDSATYYCARDMGIRWNFDVWGQGTTVTVSS | reacted with normal cross-reactive antigen (NCA), MA, and CEA | – | – |
| – | MN-15 Fab′: monovalent Fab′ fragment of murine MN-15 (antibody, V domains shown) VL: DIQLTQSPAIMSASPGEKVTMTCSASSRVSYIHWYQQKSGTSPKRWIYGTSTLASGVPARFSGSGSGTSYSLTISSMEAEDAATYYCQQWSYNPPTFGAGTKLELKR VH: EVRLVESGGGLVQGPGSLRLSCAASGFALTDYYMSWVRQSPGKTLEWLGFIANKANGHTTDYSPSVKGRFTISRDNSQTILYLQMNTLRTEDSATYYCARDMGIRWNFDVWGQGTTVTVSS | – | 5.53±1.15 | 30 |
